Like-named read-outs stand apart in the source and are kept apart here.
Tests used:
[1] = target: Peltigera membranacea cyanobiont 210A (Pmc) TnsC (Peltigera membranacea cyanobiont 210A); test: cryo-EM structure
[2] = target: Peltigera membranacea cyanobiont 210A (Pmc) TnsC (Peltigera membranacea cyanobiont 210A); test: cryo-EM structure; remark: listed apart in the source

Peltigera membranacea cyanobiont 210A (Pmc) TnsC (natural protein)
stoichiometry N [1]: 7 | stoichiometry N [2]: 7

Reference: paper PMC11915506
